# From the domain aggregation screens of Martell et al. (2025)
# Assay: soluble fraction after stress (log2 fold change); higher = more stays soluble; pooled small domains, quantitative proteomics
# Conditions: stress: 75 degC
# 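Further: 20 min heating vs room temperature control held 20 min.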
row,Sequence,soluble fraction (log2)
1,HMDKVEQLMQNPVIQEKMSEGDRELLRNASLVVLGRLEDDGSIIQRFVELFGEEAYERLKSELM,-0.0149
2,HMDLDIGSVLQASRGEKKISLRQLAERTGLTASMLSQIERNLVNPSINTLKVIAAALEIPMYKFFMG,-1.17
3,HMDLEMLEVEDTIKDLLSQHQKINAIKYYRNYMSEQLNVDMGLRQAKDTIDAIGRGATVDLSVGY,-0.0747
4,HMDLIEVLAQDTIKKIYNTYVAYKNKVDVFYVAFSGGKDSIVTLDLVQRTLPHNEFKVLFGDTGM,0.243
5,HMDLIFQKGDLVFSTEHNQRGIFYEYLEQGQAKISIEKQFFVVAARRLQLLTKREVLYPAGYDLDQLFV,-2.21
6,HMDLKENQHILQISNKGVQMGNVLKDLIIQTLNITNGNQIKAAKLLAISRAKLRYRIEQLGINISGKNI,0.000197
7,HMDLKHNQITMRELLRNKQAYLLLYKEFPMFMTPAILQNIRPLTLQQIIQMVRPYISRPKLNMLLEQLENI,0.164
8,HMDLMQRVIIVRPVMQGDYLTRAHLGLQTLSRNGGGGFTDIDDLVGRRAKKSLRAGLVVHNRHL,-0.813
9,HMDLPAEFSKPELETLFKRGKQSGELSLTEVRDALEAAQLPNKKTQTKVLKVLSDNAIHVLMDG,0.0744
10,HMDLPDFTSRERDILARVVQGDSNERIAASLGVSVSTVKTHIGNILRKTGQTNRVRLIVWATRHL,-2.58
11,HMDLPDYYFRVRENGAVVFRVGTENRQRRIEMVEIATVNVKNGNIKPHGEVDLTKADRLAIGEWLAARQAQ,-1.54
12,HMDLPRQSQYQALVVSYARRAGIDEAEEDLLAAFEVWRMRHNHDLAGGRTARDFILAYLPQYQRHKE,-1.98
13,HMDLQNIQNQLNTEFAKSDTRIIFWFDDKGEYEDEVSELQLGDVKLHILDGLNWFYSKYLLNEA,-0.141
14,HMDLRAPKPIKEMGEEYIKLYQYLRKGESENIVMSKMNISLDDYDYMRSEIEDKLSLYNMLDLLRKP,-0.978
15,HMDLRVKRTNKMIMEAFIHLVEQKGYDNITVQEIADEAMINRATFYAHFKDKQDLYDHIFKQAI,-0.902
16,HMDLSPEQAELAAIRGELGIKIDDYALALNIPRDRLTSYLYGRANVPAEVLISARELRYASSA,-0.0206
17,HMDMQNIQKGLSAIEPGRTFSREEYYAAIQNGSEMLLKEDALAYSLRKSLSDGDIVRVSWNQYAIP,-0.107
18,HMDMTPEEFLAWARHKPFGDPFPKTQTVTFLVPLLGVSRTNIFTWISGKVNPSKTSLLLMEALKRENR,-0.493
19,HMDNEIEQIVEDLNLTLSSLKYTKNQIESILPLIIKEIDDFKKKEKNISFENLLKLAMNHLDND,-0.38
20,HMDNEIRIPLPSLQRDGFSIGTREDDGSQLVRIMSAGSFGGMIRSFRLPEGMRIEGAKWEGEIVSIRL,-0.00847
21,HMDNEVTIAVQVNGKLRDKLIVALDTPNEKIEQLALALPKVIQNTSGLTVRKVIVIPNRLVNIVA,-1.92
22,HMDNIKRGEMFYISRGGASYSGSEQHSDRPAVVVSNDKNNENSNVVEVVYMTTQPKTDLPTHVTVR,0.0515
23,HMDNLKELDEILETYGKKKGYLITILQKAQDAYGYISIDIMNRISEFTGIKVAKIYGVATFYAQFRL,0.0785
24,HMDNPLSQQEKRILQLISLGKTNQEIADILYLSNGTVRNYISSILNKLSANNRVEAARIAEEHGW,-0.755
25,HMDNPNVMAQVKSLLASKGLSEQEVKERLKAKGLNIDAMSDAEIAQNRSVIEQTIAELEAEKKKAG,0.205
26,HMDNPYEVFIPNSYIGQRLDQTLASLFPQFSRSRLQNWLASGNLLVNGKIVKPKTKILGGEQINILDPYN,-0.608
27,HMDNTFEEVKEKLLDLLKERPLTPAEVSKRMEEDKNILAQVIQYLLEEEIIKTEDGMLSKVIG,-0.038
28,HMDNWYIAFNSFLSQNKLTAKNVSELTGLSKPTIDSYKQGKRKPTDENMQIIKDKLGFNISEILYN,-0.0615

row,Sequence,soluble fraction (log2)
1,HMDPDDEILINIMTKLLTEKQIIIKNKEIFNFLLKRINRTYEEVYNLINKMDKLSLEKKKQLTIPSIKEL,-1.71
2,HMDPEEETLKNMQRMLQDSGPLKKTEFSLLAKSLGIAEKKARKLIDRGRGRFWTVESGEQKNTQLVTPIQ,-0.108
3,HMDPERVVGQTGIVHLRIPARQHNTGKVMIEVQGSLREFDAVSEAEEIPTGTPILIVGRTEEGVFIAQPF,-0.286
4,HMDPGPVLISAQVLDDLEAIRRDGSSNMLDWPAVARLAEVMGMDRTAAWVRTHHREYSAGIFRGFASD,-1.93
5,HMDPHEEELLRQLIRGDIAGYEVLFHKYYPTFFAFIKGMTKETVVAEDITQNIFMKVWLNRERLDAA,-0.145
6,HMDPIATLTPREREVLSLMAEGRSNGAIAAALVVGDGAVEKHVSNIFQKLELTPAEGDHRRVLAVLRWLE,-0.909
7,HMDPLADLFSRIRNAQMRNKKVVTSPASKLRAGILEVLAKEGYIRGYAMTQHASGKNELDIELN,-1.05
8,HMDPNAITSAQVTKLQVLANEKGFAERQARLTMWAEVIGRNVGTANELTKAEAHKLIEHMDALPV,-0.691
9,HMDPNFKYIIRIANSDVSGEQKLAYALTSIRGIGERTSNAIIQKLGLDSTQLAGKLTDKNVEDIESA,0.092
10,HMDPPQEVWDLTRSYLDSMNRPVHGHKSPQETYLRQVKSHRLPATALWDYFMAQRFHAVHATSESAA,-0.127
11,HMDPPYKDKNLHELLLKINNLNILKKDSVIILHRHKKQKEIFPSNFKIIEQKQYGISKIIFLTVL,-0.00334
12,HMDPRTSSLTPQERKVLELVGGGLTNRQIAAEMFLAEKTVKNYVSSLLAKLGFERRTQAAVFIASPAF,-0.54
13,HMDPSKLVEVQEPVSMKALSEGLGIKVTELIATFAFKLKIGGKNINSMLSNDEVELVALDLERNIKVV,0.258
14,HMDPTEPLFVGVVTAEPYLNIREYPTTQSKDLGDLFPGMHVNVYEIVPNWYRIDDGWVASAWVKRDWGGG,-0.478
15,HMDPTIRRGELIDAASRLFLSKGYAATSVRDILDEVGNRTASPSVFYYYFKSKEEIYQAVLRRHSE,-1.51
16,HMDPTVSGQTGSVVREIRPGVPGEVELSVPLYGIRRWQAMADGILAEGTRVTVIQAEGVRLSVRPV,-1.24
17,HMDPTVTFIVQVNGRVRDKITLSSDISENEAKNVALESPKITPHISGKSLSRVIFVPGKLINLVV,-1.06
18,HMDPVATLTPREREVLELMAEGRTNAGIAEAMVVTEGAVEKHIQRIFAKLGLHADGGVHRRVAAVLALLG,-1.38
19,HMDQDIILHKVQPGDTLSKILLHYHSHQDRNKLQGLIAESMTANPFIKNPDLIYPGQLIQVPVPA,0.0879
20,HMDQFMLQSAWLRAVQHVMKHTDDVGTQFAEEARRMHYGEADERPIRGQATSDEARALHDEGIEVMALPI,-0.36
21,HMDQILIHLKEGIDVTDVQPMLKALDLNVRMFNRDKNIIVISVLNRELDAIPQTIAALRPWEELFDSA,0.171
22,HMDQNVSVPKLAGLQVEEANAILKSKGLHIEIIDSIYQKDAVPGAIIEQVPEENSKVKKGRAIYVSVYAK,-0.65
23,HMDQVYYDLKSLIELLPADQMEVLKMRYFEELSFKKIAQKIDVSINTALGRMRYALINLRALSKKHHID,-0.272
24,HMDRDMGSMTDFENVRDAYLTGKVWNVGDLIEANGITGIIIRKGTNYVSYNDGDGKVHKAWLHDITL,-0.802
25,HMDREILWTNYVAARKQEFIASSIDTIGAEYLDNRRFWDTQFEREWTIIAERLASGFGLTDDILSIVGSDF,-4.12
26,HMDRETEEYELIRAKLEWLYQKQTGTIRNQTAKILHHLEIAKEEGNYYLYLKIKEEAKQWLVQASMYLD,-0.638
27,HMDRGDVTREALIKAAIEIFGRDGFHAASTRAIAERAGANQALIGYHFRGKLGLYHATFEYIIGKI,-0.351
